Measurements taken from US6534281.

Experiments:
human C-peptide (human) [1] = assay: ELISA on immobilized C-peptide; labeled antibody 10 ug/ml, free C-peptide 10 ug/ml
human C-peptide (human) [2] = assay: ELISA on immobilized C-peptide; labeled antibody 0.1 ug/ml, free C-peptide 10 ug/ml
human C-peptide (human) [3] = assay: ELISA on immobilized C-peptide; labeled antibody 1.0 ug/ml, free C-peptide 0.1 ug/ml
human C-peptide (human) [4] = assay: ELISA on immobilized C-peptide; labeled antibody 10 ug/ml, free C-peptide 0 ug/ml (reference)
human proinsulin (human) [5] = molecular target: human proinsulin (human) (UniProt P01308); assay: sandwich immunoassay, one-step; proinsulin 200 ng/ml; CPT-3F-11 on particles, labeled antibody 9101
Sequence of UniProt P01308 (P01308 25-110): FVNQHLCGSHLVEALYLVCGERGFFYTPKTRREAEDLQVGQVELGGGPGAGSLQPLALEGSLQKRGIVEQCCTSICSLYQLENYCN

human proinsulin (human) [6] = molecular target: human proinsulin (human) (UniProt P01308); assay: sandwich immunoassay, one-step, against C-peptide calibration; proinsulin 50 ng/ml; CPT-3-F11 on particles, labeled antibody 9101
human proinsulin (human) [7] = molecular target: human proinsulin (human) (UniProt P01308); assay: sandwich immunoassay, two-step, against C-peptide calibration; proinsulin 50 ng/ml; CPT-3-F11 on particles, labeled antibody 9101
human proinsulin (human) [8] = molecular target: human proinsulin (human) (UniProt P01308); assay: sandwich immunoassay, one-step, against C-peptide calibration; proinsulin 200 ng/ml; CPT-3-F11 on particles, labeled antibody 9101
human proinsulin (human) [9] = molecular target: human proinsulin (human) (UniProt P01308); assay: sandwich immunoassay, two-step, against C-peptide calibration; proinsulin 200 ng/ml; CPT-3-F11 on particles, labeled antibody 9101
human proinsulin (human) [10] = molecular target: human proinsulin (human) (UniProt P01308); assay: sandwich immunoassay, two-step, against C-peptide calibration; proinsulin 400 ng/ml; CPT-3-F11 on particles, labeled antibody 9101
human proinsulin (human) [11] = molecular target: human proinsulin (human) (UniProt P01308); assay: sandwich immunoassay, one-step, against C-peptide calibration; proinsulin 50 ng/ml; CPT-3-F11 on particles, labeled antibody PEP-001
human proinsulin (human) [12] = molecular target: human proinsulin (human) (UniProt P01308); assay: sandwich immunoassay, two-step, against C-peptide calibration; proinsulin 400 ng/ml; CPT-3-F11 on particles, labeled antibody PEP-001

Sequence of human C-peptide (human) (peptide, as listed by the source): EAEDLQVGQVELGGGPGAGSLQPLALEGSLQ

- Absorbance (absorbance at 405 nm) (human C-peptide (human) [1]): 0.008
- Binding Ratio (human C-peptide (human) [1]): 0.1%
- Absorbance (absorbance at 405 nm) (human C-peptide (human) [2]): 0
- Binding Ratio (human C-peptide (human) [2]): 0%
- Absorbance (absorbance at 405 nm) (human C-peptide (human) [3]): 0.311
- Binding Ratio (human C-peptide (human) [3]): 16%
- Binding Ratio (human C-peptide (human) [4]): 100%
- counts of chemiluminescence (human proinsulin (human) [5]): 51300 counts
- Cross-reactivity (%) to Human Proinsulin (human proinsulin (human) [6]): 0.9%
- Cross-reactivity (%) to Human Proinsulin (human proinsulin (human) [7]): 0.4%
- Cross-reactivity (%) to Human Proinsulin (human proinsulin (human) [8]): 2.6%
- Cross-reactivity (%) to Human Proinsulin (human proinsulin (human) [9]): 1.2%
- Cross-reactivity (%) to Human Proinsulin (human proinsulin (human) [10]): 1.4%
- Cross-reactivity (%) to Human Proinsulin (human proinsulin (human) [11]): 56.8%
- Cross-reactivity (%) to Human Proinsulin (human proinsulin (human) [12]): > 15%
Substance: anti-human C-peptide monoclonal antibody CPT-3-F11 (Dako)
